Target: the molecule itself
Assay: gel filtration chromatography (self-association, homodimer)

B1: vSET triple mutant KR(M)R-to-AA(M)A (aa 85-88) (enzyme)
chain: MFNDRVIVKKSPLGGYGVFARKSFEKGELVEECLCIVRHNDDWGTALEDYLFSRKNMSAMALGFGAIFNHSKDPNARHELTAGLAAMAIFTIKPIAIGEEITISYGDDYWLSRPRLTQN
notes: elutes as a dimer like the wild type; also called KR(M)R/AA(M)A
B1: binds.

B2: recombinant wild-type vSET expressed in E. coli BL21 (enzyme)
chain: MFNDRVIVKKSPLGGYGVFARKSFEKGELVEECLCIVRHNDDWGTALEDYLFSRKNMSAMALGFGAIFNHSKDPNARHELTAGLKRMRIFTIKPIAIGEEITISYGDDYWLSRPRLTQN
notes: also called hexa-histidine tagged vSET; not shown: tag in the
B2: binds.
